Reference: paper PMC4424342

Molecular target: GST-Shp2 SH2 T73D/S189D
Test: pull-down; glutathione-Sepharose bead-bound bacterial GST-Shp2 SH2 proteins incubated with lysates of HEK293T cells transfected with the ligand and constitutively active Src; 1 h at 4 °C; bound proteins immunoblotted for phosphotyrosine (4G10) and GST; band intensities quantified with ImageJ

Going from “GFP-PKD1, tyrosine-phosphorylated (from UniProt Q15139 1-912) (enzyme)” to “Venus-GAB1, tyrosine-phosphorylated (from UniProt Q13480 1-694) (natural protein)”, the fold reduction of binding against the wild-type SH2 domains rises from 1.7 fold to 5.7 fold.

Substance “Venus-GAB2, tyrosine-phosphorylated (from UniProt Q9UQC2 1-676) (natural protein)” has a fold reduction of binding against the wild-type SH2 domains of 2.7 fold.
